Measurements reported in the supplement of paper PMC10126150.
± gives the standard deviation of the averaged measurements.

Tested on: ATP
Test: switch fluorescence ratio, 500 uM ATP over buffer (Cy3 cluster intensity, sum of 5 cycles each) (fold (ratio)); higher = stronger signal-on switching upon ATP binding; sequences stand for … in TCGTCGGCAGCGTCAGATGTGTATAAGAGACAGTTTTTTTTTTTTTTTTTTTTTTTTT…TC
Settings: aptamer strand: ATP DNA aptamer (quencher-CACCTGGGGGAGTATTGCGGAGGAAGG + anchor), 100 nM annealed; ATP concentration: 500 uM
How it was run: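 Five buffer/ATP imaging cycles were run on Cy3-labelled switching-strand clusters on a modified Illumina MiSeq flow-cell, with NaOH stripping and re-annealing between cycles. In each cycle, clusters annealed to 100 nM quencher-labelled ATP aptamer were imaged in selection buffer, then after 15 min with 500 uM ATP at 22 °C. Per cluster, the fluorescence ratio is summed target-cycle over summed buffer-cycle Cy3 intensity, averaged per switch-domain sequence. Only clusters within 100-1000 RFU were kept.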
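Further: ATP exposure 15 min at 22 °C before imaging.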

Sequence | switch fluorescence ratio
CAAAAGTAAC | 1.07 ± 0.032
CAAAAGTTGG | 0.9923 ± 0.0052
CAAAATATGC | 1.14 ± 0.12
CAAAATTTCG | 1.016 ± 0.0015
CAAACAGTTT | 0.994 ± 0.029
CAAACCAACG | 1.345 ± 0.0044
CAAACGCGCG | 0.997 ± 0.045
CAAACTTTGG | 1.006 ± 0.0077
CAAAGAGTAG | 1.002 ± 0.005
CAAAGTAAAA | 1.04 ± 0.054
CAAAGTTCGC | 0.9838 ± 0.0076
CAAATAGGCT | 0.984 ± 0.028
CAAATCAGTG | 1.002 ± 0.01
CAAATCGTCG | 0.957 ± 0.022
CAAATGGGAT | 0.9951 ± 0.0099
CAAATGGGCC | 0.993 ± 0.019
CAAATGGGTT | 1.01 ± 0.083
CAAATTGGAA | 0.961 ± 0.043
CAAATTTGC | 0.9315 ± 0.0035
CAAATTTGG | 1.05 ± 0.031
CAACAGAGTG | 1.07 ± 0.085
CAACATCACG | 1.52 ± 0.057
CAACATGATG | 0.995 ± 0.013

Sequence | switch fluorescence ratio
CAACATTTCA | 1.01 ± 0.022
CAACCAGTGT | 1.31 ± 0.026
CAACCGGCCA | 1.11 ± 0.027
CAACGTGTGG | 1.04 ± 0.072
CAACTCCGGA | 1.204 ± 0.0066
CAACTGCATA | 1.98 ± 0.063
CAACTGGTAT | 1.17 ± 0.26
CAAGAAGAGT | 1.01 ± 0.04
CAAGAAGATG | 0.9523 ± 0.0012
CAAGACAACT | 1.03 ± 0.033
CAAGACAGCT | 1.02 ± 0.031
CAAGATCATT | 1.008 ± 0.0036
CAAGATGGTC | 0.987 ± 0.051
CAAGATTGGA | 0.961 ± 0.025
CAAGATTGTG | 1.01 ± 0.017
CAAGCAAGAT | 2.58 ± 0.24
CAAGCATAGG | 1.07 ± 0.072
CAAGCGTCAC | 1.12 ± 0.019
CAAGCTCTGT | 1.01 ± 0.016
CAAGCTTTCG | 1.06 ± 0.048
CAAGGAAACG | 1.002 ± 0.0034
CAAGGACTGT | 1.05 ± 0.016
CAAGGAGATG | 1.01 ± 0.046

Sequence | switch fluorescence ratio
CAAGGAGGGG | 1.017 ± 0.0074
CAAGGATTAA | 1.006 ± 0.0012
CAAGGCTTGA | 0.974 ± 0.022
CAAGGGCGGC | 0.973 ± 0.012
CAAGGGGATT | 1 ± 0.027
CAAGGTAAGG | 0.984 ± 0.011
CAAGGTAGGG | 0.968 ± 0.019
CAAGGTGGTC | 0.995 ± 0.029
CAAGGTTATG | 0.974 ± 0.013
CAAGTAGCGA | 1.088 ± 0.0072
CAAGTAGGGA | 1.01 ± 0.057
CAAGTAGGGG | 0.9765 ± 0.0015
CAAGTTAATT | 0.987 ± 0.011
CAAGTTGTAC | 1.1 ± 0.019
CAAGTTTGTA | 0.997 ± 0.021
CAATAAAGGT | 1.08 ± 0.18
CAATAAGATT | 1.016 ± 0.0077
CAATAATATG | 0.993 ± 0.029
CAATAATTTA | 1.004 ± 0.0086
CAATACAGTC | 1.03 ± 0.011
CAATACTATA | 1.11 ± 0.067
CAATACTTAT | 1.01 ± 0.019
CAATAGATGT | 1.042 ± 0.0021

Sequence | switch fluorescence ratio
CAATAGGGCA | 0.943 ± 0.024
CAATAGTCAA | 1.05 ± 0.013
CAATATGAAT | 1.02 ± 0.0057
CAATATGATA | 1.003 ± 0.0011
CAATATTGCC | 1.02 ± 0.051
CAATCAATCG | 1.05 ± 0.017
CAATCAGGAC | 1.06 ± 0.041
CAATCTTGGG | 0.97144 ± 0.00089
CAATGATCAG | 1.006 ± 0.0081
CAATGATGAC | 1.01 ± 0.018
CAATGGATGA | 1 ± 0.015
CAATGGATTT | 1.026 ± 0.007
CAATGGCCGG | 1.02 ± 0.028
CAATGGCTTT | 0.9983 ± 0.0059
CAATGGGGAA | 1 ± 0.014
CAATGTGCAG | 0.98804 ± 5.9e-06
CAATTATTAG | 0.988 ± 0.017
CAATTCGAGC | 0.988 ± 0.015
CAATTCGCGA | 1.2 ± 0.034
CAATTCGTAA | 1.11 ± 0.018
CAATTCGTCT | 0.994 ± 0.075
CAATTGCCCA | 1.014 ± 0.0079
CAATTGTACT | 0.994 ± 0.013

Sequence | switch fluorescence ratio
CAATTTATAT | 0.994 ± 0.019
CAATTTGTGT | 0.983 ± 0.012
CAATTTTCTG | 0.985 ± 0.057
CAATTTTGTG | 0.9807 ± 0.007
CACAAGGTAT | 1.03 ± 0.033
CACAATTGGG | 1.01 ± 0.035
CACAGTTACC | 1.242 ± 0.0095
CACATACATT | 1.24 ± 0.067
CACATAGTTT | 1.03 ± 0.023
CACATTGACC | 1.1119 ± 7.1e-05
CACATTGTAG | 1.007 ± 0.0086
CACATTTTCA | 1.01 ± 0.027
CACCAAGGTT | 1.15 ± 0.088
CACCAGGAAT | 1.08 ± 0.021
CACCAGTGCT | 1.621 ± 0.0094
CACCCATTGC | 1.584 ± 0.0038
CACCGGGCCT | 1.02 ± 0.016
CACCGGGGTT | 1.01 ± 0.018
CACCTAGTTT | 1.01 ± 0.052
CACGAATGCT | 1.04 ± 0.019
CACGAGAAGT | 1.044 ± 0.0047
CACGCGGTGG | 1.02 ± 0.13
CACGCTAGTA | 1.04 ± 0.021

Sequence | switch fluorescence ratio
CACGCTTCCG | 1.07 ± 0.047
CACGGATGTT | 1.02 ± 0.093
CACGGTCTAA | 1.03 ± 0.043
CACGTAAACG | 1.0351 ± 9.7e-05
CACGTTACTG | 1.66 ± 0.12
CACTAGAGGT | 1.03 ± 0.06
CACTAGTTTT | 1.01 ± 0.012
CACTATGGGA | 1.02 ± 0.027
CACTATTAGT | 0.979 ± 0.01
CACTCAGGGA | 1.04 ± 0.046
CACTCATTGG | 1.039 ± 0.008
CACTCGAGTC | 0.978 ± 0.011
CACTCGGAAT | 1.19 ± 0.03
CACTCTCTGA | 0.969 ± 0.045
CACTGCGCGC | 1.11 ± 0.017
CACTGGAGAA | 1.044 ± 0.0051
CACTGGGCGA | 3.28 ± 3.2
CACTGGGGGC | 1.02 ± 0.036
CACTGGTGGC | 1.06 ± 0.022
CACTGTGTGG | 0.987 ± 0.042
CACTTAGGCT | 1.01 ± 0.011
CACTTATGTG | 0.99 ± 0.038
CACTTGGAGC | 0.944 ± 0.059

Sequence | switch fluorescence ratio
CACTTGTGAC | 1 ± 0.016
CACTTTCACA | 1.17 ± 0.055
CAGAAAAAAC | 1.05 ± 0.035
CAGAAAAGCA | 1.03 ± 0.017
CAGAAGCGGA | 1.19 ± 0.051
CAGAATTAA | 1 ± 0.037
CAGACGGTTT | 1.095 ± 0.0078
CAGACGTCGA | 1.05 ± 0.066
CAGAGATTAG | 0.996 ± 0.043
CAGAGATTTA | 0.995 ± 0.024
CAGAGGAAGT | 1.02 ± 0.04
CAGAGGAGTG | 0.9738 ± 0.0038
CAGAGGGAGG | 1.02 ± 0.033
CAGAGGGGGA | 1.04 ± 0.036
CAGAGGGGGC | 1.012 ± 0.0071
CAGAGTGGGA | 1.03 ± 0.016
CAGATAAGTG | 1.01 ± 0.068
CAGATACAAG | 1.036 ± 0.0095
CAGATAGGGG | 1.12 ± 0.19
